Experimental data taken from patent publication US20040106198A1, “Inhibition of peptide cleavage in plants” (LARGE SCALE BIOLOGY CORPORATION, priority 2002, published 2004).

System: CD34+
Experiment: CD34+ proliferation assays
Assay type: cell-based
Conditions: proteins purified from plants
Description: The vectors were used to inoculate plant leaves of different sets of plants as described in the examples above. Both plant homogenates and interstitial fluid were extracted as described above. hSCF and pSCF were each purified from 27 plants to yield 0.85 mg (˜15 mg/kg) and 2.5 mg (˜45 mg/kg) of protein respectively.

B1: pSCF: porcine Stem Cell growth Factor expressed in plants from GENEWARE vector (protein)
chain: QGICRNRVTDDVKDVTKLVANLPKDYKITLKYVPGMDVLPSHCWISEMVEQLSVSLTDLLDKFSNISEGLSNYSIIDKLVKIVDDLVECMEEHSFENVKKSSKSPEPRLFTPEKFFGIFNRSIDAFKDLEMVAPKTSECVISSTLTPEKDSRVSVTKPFMLPPVAA
With B1 the “biological activity in CD34+ proliferation assays” value was “biologically active”.
